In data set [1] the target is T1, His6-LacI-59 (UniProt P03023 59-360, del1-58). The data set is described as follows: EMSA. (A gel shift assay detects complexes by their altered migration in electrophoresis.)
For another data set, the target named is wild-type LacI (UniProt P03023 1-360). The data set is described as follows: EMSA.
The target in data set [2] is T1, His6-LacI-59. The experiment in a line: filter binding.
The target in another data set is His6-LacI-51 (UniProt P03023 51-360, del1-50). The data set is described as follows: filter binding.
His6-LacI-51, sequence (P03023 51-360, stated change not applied): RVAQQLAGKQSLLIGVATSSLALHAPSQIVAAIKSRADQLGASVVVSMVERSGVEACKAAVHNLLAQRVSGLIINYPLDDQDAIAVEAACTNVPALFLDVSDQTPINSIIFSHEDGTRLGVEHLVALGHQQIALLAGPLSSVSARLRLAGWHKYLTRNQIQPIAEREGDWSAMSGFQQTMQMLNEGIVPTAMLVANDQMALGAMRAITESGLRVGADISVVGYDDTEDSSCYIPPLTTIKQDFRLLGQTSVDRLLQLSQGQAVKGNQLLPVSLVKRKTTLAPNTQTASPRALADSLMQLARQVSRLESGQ

T1 sequence (P03023 59-360, stated change not applied): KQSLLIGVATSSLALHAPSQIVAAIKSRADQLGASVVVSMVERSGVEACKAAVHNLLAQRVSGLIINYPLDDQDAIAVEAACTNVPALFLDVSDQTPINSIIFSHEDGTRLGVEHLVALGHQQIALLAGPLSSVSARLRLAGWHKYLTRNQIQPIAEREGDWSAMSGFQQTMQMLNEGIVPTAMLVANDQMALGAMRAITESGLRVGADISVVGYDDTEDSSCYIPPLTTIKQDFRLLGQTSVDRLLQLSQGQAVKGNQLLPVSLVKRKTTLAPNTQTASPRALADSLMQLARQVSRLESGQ
wild-type LacI, sequence (P03023 whole entry): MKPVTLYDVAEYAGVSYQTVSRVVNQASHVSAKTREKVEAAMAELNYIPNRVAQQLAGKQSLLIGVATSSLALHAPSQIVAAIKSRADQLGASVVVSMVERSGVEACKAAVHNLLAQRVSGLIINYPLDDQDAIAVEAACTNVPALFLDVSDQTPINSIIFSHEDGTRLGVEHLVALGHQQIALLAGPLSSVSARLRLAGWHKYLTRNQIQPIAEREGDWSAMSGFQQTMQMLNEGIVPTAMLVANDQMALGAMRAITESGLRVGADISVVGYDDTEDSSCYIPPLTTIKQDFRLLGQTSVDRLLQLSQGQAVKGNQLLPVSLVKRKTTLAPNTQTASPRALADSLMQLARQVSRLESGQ

B1: O1 operator 40 bp (dsDNA)
DNA 1: TGTTGTGTGGAATTGTGAGCGGATAACAATTTCACACAGG
DNA 2: CCTGTGTGAAATTGTTATCCGCTCACAATTCCACACAACA
In the case of B1, the binding result in the data set with His6-LacI-59 [1] is on record as “no binding”; with wild-type LacI it was “binds”.

B2: Oscram 40 bp (dsDNA)
DNA 1: GTCATAAGTATCGTGAACTGCTGAGAGTGCTAGCGTTAGT
DNA 2: ACTAACGCTAGCACTCTCAGCAGTTCACGATACTTATGAC
For B2, in the data set with His6-LacI-59 [2], the binding result is reported as “no binding”. In addition, the “apparent K (half saturation)” value with His6-LacI-51 was around 5 µM.

Source of the values: publication PMC5866929.
